These are literature values, as cited in paper PMC6389717.

For orientation: pKa means the pH at which an ionisable group is half protonated.

The target of one data set is Asp38 (UniProt position 38, DATVEDPVGSE). The data set can be described thus: kinetics (per the article's general statement only; no method given for this value). Conditions: presumed enzyme-substrate complex (general statement of the article); not given.
In the next data set the target is Lys39 (UniProt position 39, IMAVVKANAYG). The data set can be described thus: kinetics. Conditions: enzyme-substrate complex (alanine-bound active site, external aldimine).

“Ketosteroid isomerase (3-oxo-Delta5-steroid isomerase) (not stated in the article (inferred: Comamonas testosteroni, formerly Pseudomonas testosteroni))”: in the data set with Asp38, the pKa is reported as 4.6. Turning to “Alanine racemase (not stated in the article (inferred: Geobacillus stearothermophilus, formerly Bacillus stearothermophilus))”, the pKa with Lys39 is recorded as 7.4.
